Drawing on publication PMC9823104, “Targeted systematic evolution of an RNA platform neutralizing DNMT1 function and controlling DNA methylation”, this text covers binding result and Kd for 6 molecules.

The target of series [1] is T1, His-tagged DNMT1 (Homo sapiens, UniProt P26358 1-1616). The series can be described thus: ELONA; BLI: AR2G tips, protein amine-coupled, assay buffer not fully stated (PBS pre-hydration); MST: 50 nM RED-tris-NTA labelled stock in 25 mM Hepes pH 7.5, 250 mM NaCl, 0.05% Tween 20 / PBS-T mix, 25 C; EMSA: 5 mM Tris pH 7.4, 5 mM MgCl2, 1 mM DTT, 3% glycerol, 100 mM NaCl, RT; ELONA: PBS, RT; pulldown: 10 mM Tris pH 7.5, 200 nM (so in the source) NaCl, 5 mM EDTA, 0.1% Triton X-100. As to conditions: protein: commercial; tags: His6; label: 3' biotin; hairpin (predicted).

Series [2] addresses T2, DNMT1 (purified, Active Motif) (UniProt P26358 1-1616). The series can be described thus: BLI; BLI: AR2G tips, protein amine-coupled, assay buffer not fully stated (PBS pre-hydration); MST: 50 nM RED-tris-NTA labelled stock in 25 mM Hepes pH 7.5, 250 mM NaCl, 0.05% Tween 20 / PBS-T mix, 25 C; EMSA: 5 mM Tris pH 7.4, 5 mM MgCl2, 1 mM DTT, 3% glycerol, 100 mM NaCl, RT; ELONA: PBS, RT; pulldown: 10 mM Tris pH 7.5, 200 nM (so in the source) NaCl, 5 mM EDTA, 0.1% Triton X-100. Conditions: protein: commercial; for Kd: hairpin (predicted).

Series [3] deals with T1, His-tagged DNMT1. Description: MST; up to 1.5 uM RNA; BLI: AR2G tips, protein amine-coupled, assay buffer not fully stated (PBS pre-hydration); MST: 50 nM RED-tris-NTA labelled stock in 25 mM Hepes pH 7.5, 250 mM NaCl, 0.05% Tween 20 / PBS-T mix, 25 C; EMSA: 5 mM Tris pH 7.4, 5 mM MgCl2, 1 mM DTT, 3% glycerol, 100 mM NaCl, RT; ELONA: PBS, RT; pulldown: 10 mM Tris pH 7.5, 200 nM (so in the source) NaCl, 5 mM EDTA, 0.1% Triton X-100. Conditions: protein: commercial; tags: His6; unable to form stem-loop. Background: A gel shift assay detects complexes by their altered migration in electrophoresis.

Series [4] concerns the target T1, His-tagged DNMT1. Description: MST; BLI: AR2G tips, protein amine-coupled, assay buffer not fully stated (PBS pre-hydration); MST: 50 nM RED-tris-NTA labelled stock in 25 mM Hepes pH 7.5, 250 mM NaCl, 0.05% Tween 20 / PBS-T mix, 25 C; EMSA: 5 mM Tris pH 7.4, 5 mM MgCl2, 1 mM DTT, 3% glycerol, 100 mM NaCl, RT; ELONA: PBS, RT; pulldown: 10 mM Tris pH 7.5, 200 nM (so in the source) NaCl, 5 mM EDTA, 0.1% Triton X-100. Conditions: protein: commercial; tags: His6; hairpin (predicted).

In series [5] the target is T2, DNMT1 (purified, Active Motif). The series can be described thus: BLI; no binding detected below 100 nM RNA; BLI: AR2G tips, protein amine-coupled, assay buffer not fully stated (PBS pre-hydration); MST: 50 nM RED-tris-NTA labelled stock in 25 mM Hepes pH 7.5, 250 mM NaCl, 0.05% Tween 20 / PBS-T mix, 25 C; EMSA: 5 mM Tris pH 7.4, 5 mM MgCl2, 1 mM DTT, 3% glycerol, 100 mM NaCl, RT; ELONA: PBS, RT; pulldown: 10 mM Tris pH 7.5, 200 nM (so in the source) NaCl, 5 mM EDTA, 0.1% Triton X-100. As to conditions: protein: commercial; hairpin (predicted).

T1 sequence (P26358 whole entry): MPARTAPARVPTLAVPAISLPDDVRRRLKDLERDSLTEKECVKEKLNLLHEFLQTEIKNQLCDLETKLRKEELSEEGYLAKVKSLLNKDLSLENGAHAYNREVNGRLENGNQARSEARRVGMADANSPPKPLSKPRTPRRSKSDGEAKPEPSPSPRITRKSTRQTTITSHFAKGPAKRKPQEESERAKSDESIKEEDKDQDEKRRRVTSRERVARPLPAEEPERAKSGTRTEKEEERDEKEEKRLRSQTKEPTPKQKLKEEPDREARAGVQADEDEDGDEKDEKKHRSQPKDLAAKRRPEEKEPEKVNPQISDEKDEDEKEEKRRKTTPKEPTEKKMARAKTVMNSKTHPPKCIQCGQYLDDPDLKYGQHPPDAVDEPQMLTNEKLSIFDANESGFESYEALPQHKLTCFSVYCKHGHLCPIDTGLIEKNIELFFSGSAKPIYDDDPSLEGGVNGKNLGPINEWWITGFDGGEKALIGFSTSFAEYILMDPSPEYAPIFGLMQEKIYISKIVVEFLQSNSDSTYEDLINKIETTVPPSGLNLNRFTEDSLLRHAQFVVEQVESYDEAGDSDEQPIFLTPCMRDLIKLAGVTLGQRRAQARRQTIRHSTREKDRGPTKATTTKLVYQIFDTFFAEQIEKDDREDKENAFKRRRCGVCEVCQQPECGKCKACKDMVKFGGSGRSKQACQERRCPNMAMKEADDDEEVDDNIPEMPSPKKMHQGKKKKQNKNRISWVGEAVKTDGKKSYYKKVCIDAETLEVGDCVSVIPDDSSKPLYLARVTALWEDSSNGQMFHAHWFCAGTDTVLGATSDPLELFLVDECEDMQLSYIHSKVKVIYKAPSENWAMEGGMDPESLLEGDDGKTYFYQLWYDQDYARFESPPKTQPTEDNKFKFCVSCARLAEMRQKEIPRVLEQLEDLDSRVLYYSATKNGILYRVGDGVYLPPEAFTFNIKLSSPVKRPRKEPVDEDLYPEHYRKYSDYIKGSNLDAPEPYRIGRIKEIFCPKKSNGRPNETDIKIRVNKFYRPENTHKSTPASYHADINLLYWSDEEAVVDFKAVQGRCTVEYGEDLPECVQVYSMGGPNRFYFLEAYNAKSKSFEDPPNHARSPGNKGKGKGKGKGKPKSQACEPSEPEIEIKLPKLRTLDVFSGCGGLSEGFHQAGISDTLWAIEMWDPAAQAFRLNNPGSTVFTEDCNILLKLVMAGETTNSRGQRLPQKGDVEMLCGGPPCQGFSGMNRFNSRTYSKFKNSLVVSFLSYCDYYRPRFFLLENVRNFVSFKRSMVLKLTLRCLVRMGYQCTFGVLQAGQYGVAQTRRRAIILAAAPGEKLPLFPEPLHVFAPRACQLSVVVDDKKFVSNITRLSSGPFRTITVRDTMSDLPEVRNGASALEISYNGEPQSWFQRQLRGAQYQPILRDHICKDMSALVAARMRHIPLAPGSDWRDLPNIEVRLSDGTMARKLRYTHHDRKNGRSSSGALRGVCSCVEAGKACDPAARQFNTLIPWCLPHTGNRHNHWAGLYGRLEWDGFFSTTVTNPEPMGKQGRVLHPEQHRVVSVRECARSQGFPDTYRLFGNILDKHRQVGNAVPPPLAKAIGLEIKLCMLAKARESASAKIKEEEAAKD
T2 sequence (P26358 whole entry): as above

B1: Ce-10-1 sh biotin (structured_RNA)
RNA: AGGUAAUGGCGAGGCUUCUUAUCUG
modifications: 2'-F pyrimidines (all C and U)
Take B1: the binding result in the series with His-tagged DNMT1 [1] is recorded as “binds”.

B2: mutR5 (ssRNA)
RNA: CAGAGGACAAGGCGAGGCAACA
modifications: 2'-F pyrimidines (all C and U)
B2: the binding result (in series [2] (unable to form stem-loop); with His-tagged DNMT1 [3]) was “no binding” each time.

B3: DNMT1 bait (2'F-Py R5) (structured_RNA)
RNA: CUGAGGCCUUGGCGAGGCUUCU
modifications: 2'-F pyrimidines (all C and U)
On to B3, for which the Kd in the series with His-tagged DNMT1 [4] was 440 ± 140 nM; in series [5], 600 ± 100 nM.

B4: Ce-10-2 sh (structured_RNA)
RNA: UUACUGGGCUGAGGUAAUGGCGAGG
modifications: 2'-F pyrimidines (all C and U)
Regarding B4, the dissociation constant Kd in series [2] was 66.4 ± 24 nM; in the series with His-tagged DNMT1 [4] it was 106 ± 42 nM.

B5: Ce-9 sh biotin (structured_RNA)
RNA: UGGGCUGAGCUCAUGGCGAGGCUUC
modifications: 2'-F pyrimidines (all C and U)
With B5, the binding result with His-tagged DNMT1 [1] is given as “binds”.

B6: Ce-49 sh (structured_RNA)
RNA: CUGAGGCCUAACGAAGGCUUCU
modifications: 2'-F pyrimidines (all C and U)
Regarding B6, the results for the Kd (in series [2]; in the series with His-tagged DNMT1 [4]) were 79.2 ± 23.7 nM and 119 ± 34 nM, respectively.

One may read the Kd as the concentration at which binding is half-saturated.
